Measured values taken from patent publication US20200148774A1 (Genentech, published 2020).
Where a chain is given by its changes, count along the chain named. Where “and” joins values, the source holds several entries; their conditions need not be identical. Equal values may be shown once. Read-outs that look alike come from different tables or passages of the source.

Key:
hCD3εγ = target: T1, hCD3εγ (human, UniProt P07766 23-126; P09693 23-116); experiment: SPR (Biacore)
T1 construct: also called human CD3εγ

cynoCD3εγ = target: T2, cynoCD3εγ (cynomolgus monkey, UniProt Q95LI5 22-117; Q95LI7 23-113); experiment: SPR (Biacore)
T2 construct: also called cynomolgus CD3εγ
T2 sequence (looked up) 1: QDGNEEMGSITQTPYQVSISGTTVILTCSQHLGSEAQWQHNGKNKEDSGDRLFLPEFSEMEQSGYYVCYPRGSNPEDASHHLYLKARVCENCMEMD
T2 sequence (looked up) 2: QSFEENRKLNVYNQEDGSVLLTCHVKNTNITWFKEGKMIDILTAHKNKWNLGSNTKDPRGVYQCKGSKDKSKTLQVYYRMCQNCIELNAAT

[1] = target: T3, human CLL-1 on cells (endogenous on HL-60, EOL-1 and other AML cell lines and CD14+ monocytes); recombinant on … (human, UniProt Q5QGZ9 1-265); experiment: Scatchard, EOL-1 cells
T3 construct: also called 293AD/huCLL-1; tumor-derived CLL-1
T3 sequence: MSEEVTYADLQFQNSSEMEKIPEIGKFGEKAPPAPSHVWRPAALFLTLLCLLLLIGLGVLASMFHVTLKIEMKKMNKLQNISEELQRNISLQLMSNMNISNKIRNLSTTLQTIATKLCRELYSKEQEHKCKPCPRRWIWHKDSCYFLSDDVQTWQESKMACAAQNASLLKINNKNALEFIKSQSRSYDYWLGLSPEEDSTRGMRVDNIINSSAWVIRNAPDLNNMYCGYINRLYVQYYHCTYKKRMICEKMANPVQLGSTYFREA

[2] = target: T3, human CLL-1 on cells (endogenous on …); experiment: Scatchard, 293AD/huCLL-1 cells
Experimental: (§1) Competition assay mixtures of 50 μL volume containing a fixed concentration of [1¹²⁵] labeled antibody and decreasing concentrations of serially diluted, unlabeled antibody were placed into 96-well plates. HEK293AD cells stably expressing recombinant hu or cynoCLL-1 or HL-60 tumor cells expressing endogenous CLL-1 were cultured in growth media at 37° C. in 5% CO₂. Cells were detached from the flask using Sigma Cell Dissociation Solution and were washed with binding buffer, which consisted of Dulbecco's Modified Eagle Medium (DMEM) with 1% bovine serum albumin (BSA), […] and 0.1% sodium azide. The washed cells were added to the 96 well plates at a density of 100,000 cells in 0.2 mL of binding buffer. […] The final concentration of the unlabeled antibody in the competition assay ranged from 1000 nM through ten 2-fold dilution steps to a 0 nM buffer-only assay. Competition assays were carried out in triplicate. Competition assays were incubated for 2 hours at room temperature. After the 2-hour incubation, the competition assays were transferred to a Millipore Multiscreen filter plate (Billerica, Mass.) and washed 4 times with binding buffer to separate the free from bound [I¹²⁵] labeled antibody. The filters were counted on a Wallac Wizard 1470 gamma counter (PerkinElmer Life and Analytical Sciences Inc.; Wellesley, Mass.). The binding data was evaluated using NewLigand software (Genentech), which uses the fitting algorithm of Munson and Robard to determine the binding affinity of the antibody (Munson and Robard 1980).

[3] = target: T4, cynomolgus CLL-1 on cells (recombinant on HEK293AD cells) (cynomolgus monkey); experiment: Scatchard, 293AD/cynoCLL1 cells
T4 construct: also called 293AD/cynoCLL-1; 293AD/cynoCLL1
T4 chain: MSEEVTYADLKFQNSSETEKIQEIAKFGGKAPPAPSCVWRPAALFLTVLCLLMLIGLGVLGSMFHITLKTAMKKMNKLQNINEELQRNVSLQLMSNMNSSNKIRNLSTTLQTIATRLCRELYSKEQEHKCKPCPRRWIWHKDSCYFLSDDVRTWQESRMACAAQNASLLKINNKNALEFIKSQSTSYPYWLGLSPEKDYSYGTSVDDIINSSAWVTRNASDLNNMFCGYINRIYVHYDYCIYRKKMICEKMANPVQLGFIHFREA
Experimental: as §1, with “After the 2-hour incubation, the competition assays were transferred to a Millipore Multiscreen filter plate (Billerica, Mass.) and washed 4 times with binding buffer to separate the free from bound [I¹²⁵] labeled antibody.” left out

[4] = target: T5, recombinant human CLL-1 extracellular domain (ECD, amino acids 65-265) fused to an N-terminal Flag (human, UniProt Q5QGZ9 65-265); experiment: SPR (Biacore T200), IgG captured by anti-human Fc, CLL-1 as analyte
T5 construct: The construct and the K244Q SNP are stated for the immunogen; they are not written as a piece; also called huCLL-1-Flag; huCLL-1
T5 chain: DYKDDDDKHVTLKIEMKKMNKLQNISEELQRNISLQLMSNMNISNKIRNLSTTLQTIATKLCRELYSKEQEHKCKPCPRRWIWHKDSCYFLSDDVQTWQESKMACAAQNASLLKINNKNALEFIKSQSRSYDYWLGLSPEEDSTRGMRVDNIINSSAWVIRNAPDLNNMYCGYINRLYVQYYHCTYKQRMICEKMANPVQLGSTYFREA

[5] = target: T6, recombinant cynomolgus CLL-1 extracellular domain (ECD, amino acids 65-265) fused to an N-terminal Flag (cynomolgus monkey); experiment: as above
T6 construct: Construct stated for the immunogen; also called CynoCLL-1 Flag; cynoCLL-1
T6 chain: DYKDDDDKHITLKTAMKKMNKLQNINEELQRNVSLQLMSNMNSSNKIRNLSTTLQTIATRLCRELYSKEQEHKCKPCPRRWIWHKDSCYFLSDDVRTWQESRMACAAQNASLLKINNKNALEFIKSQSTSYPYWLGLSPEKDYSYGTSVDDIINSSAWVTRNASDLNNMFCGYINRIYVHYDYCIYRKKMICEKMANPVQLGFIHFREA

[6] = target: T5, recombinant human CLL-1 extracellular …; experiment: as above
[7] = target: T6, recombinant cynomolgus CLL-1 …; experiment: as above
[8] = target: T5, recombinant human CLL-1 extracellular …; experiment: SPR (Biacore T200), IgG captured by anti-human Fc, human CLL-1 as analyte
Experimental: The binding affinity of the antibodies in this section was determined by BIAcore™ T200 Format. Briefly, BIAcore™ research grade CM5 chips were activated with 1-ethyl-3-(3-dimethylaminopropyl) carbodiimide (EDC) and N-hydroxysuccinimide (NHS) reagents according to the supplier's instructions. Goat anti-human Fc IgGs were coupled to the chips to achieve approximately 10,000 response units (RU) in each flow cell. Unreacted coupling groups were blocked with 1M ethanolamine. For kinetics measurements, antibodies were captured to achieve approximately 300 RU. Three-fold serial dilutions of human CLL-1 was injected in HBS-P buffer (0.01M HEPES pH7.4, 0.15M NaCl, 0.005% surfactant P20) at 25° C. with a flow rate of 30 μl/min. Association rates (kon) and dissociation rates (koff) were calculated using a 1:1 Langmuir binding model (BIAcore™ T200 Evaluation Software version 2.0). The equilibrium dissociation constant (Kd) was calculated as the ratio koff/kon.

[9] = target: T4, cynomolgus CLL-1 on cells (recombinant …); experiment: FACS, stable cell line expressing recombinant cyno CLL-1
[10] = target: T3, human CLL-1 on cells (endogenous on …); experiment: FACS, stable cell line expressing recombinant hu CLL-1 and AML tumor cell lines
[11] = target: T3, human CLL-1 on cells (endogenous on …); experiment: Scatchard, HL-60 cells
Experimental: as §1, with “After the 2-hour incubation, the competition assays were transferred to a Millipore Multiscreen filter plate (Billerica, Mass.) and washed 4 times with binding buffer to separate the free from bound [I¹²⁵] labeled antibody.” left out

[12] = target: T5, recombinant human CLL-1 extracellular …; experiment: affinity column of the TDB summary table (rounded Biacore KD of the second the 8th table / the 4th table tables)
[13] = target: T6, recombinant cynomolgus CLL-1 …; experiment: as above

T1 sequence (P07766 23-126, chain 1 of 2): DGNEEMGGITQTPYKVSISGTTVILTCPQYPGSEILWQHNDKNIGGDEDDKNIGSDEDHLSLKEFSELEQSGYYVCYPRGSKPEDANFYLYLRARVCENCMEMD
T1 sequence (P09693 23-116, chain 2 of 2): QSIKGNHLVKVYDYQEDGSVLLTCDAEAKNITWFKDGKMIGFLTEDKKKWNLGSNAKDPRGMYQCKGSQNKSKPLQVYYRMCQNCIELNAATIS

B1: 38E4v1 (antibody, V domains shown)
VH: EVQLVQSGAEVKKPGASVKVSCKASGFTFTSYYIHWVRQAPGQGLEWIGWIYPENDNTKYNEKFKDRVTITADTSTSTAYLELSSLRSEDTAVYYCARDGYSRYYFDYWGQGTLVTVSS
VL: DIVMTQSPDSLAVSLGERATINCKSSQSLLNSRTRKNYLAWYQQKPGQSPKLLIYWTSTRKSGVPDRFSGSGSGTDFTLTISSLQAEDVAVYYCKQSFILRTFGQGTKVEIK
notes: also called h38E4v1
**Q.** Which results are given for B1?
**A.** Kd (hCD3εγ): 0.5 nM; Kd (cynoCD3εγ): 0.7 nM

B2: 40G5c (antibody, V domains shown)
VH: B1 VH with F27Y, S31N, E54G, N55D, D56G, D66G, V68A, I70L, G100S, R103N
VL: B1 VL with S49P, T57A, K61E, K95T
notes: also called h40G5c
**Q.** With B2 as the binder, how does the Kd (hCD3εγ) read?
**A.** The Kd was 12 nM.

**Q.** What about the Kd (cynoCD3εγ) of the same binder?
**A.** Its Kd is 14 nM.

B3: 21C9.L2H3 (antibody, V domains shown)
VH: EVQLVQSGAEVKKPGASVKVSCKASGYTFTDYYLDWVRQAPGQGLEWIGRVNPYNGGTIYNQKFKGRVTLTRDTSTSTAYLELSSLRSEDTAVYYCARDHYRYDPLLDYWGQGTLVTVSS
VL: DIQMTQSPSSLSASVGDRVTITCKASQDVSTAVAWFQQKPGKAPKLLIYSPSYRYTGVPSRFSGSGSGTDFTLTISSLQPEDFATYYCQQLYSTPYTFGQGTKVEIK
notes: humanized, assessed in the form of an IgG; also called humanized 21C9.L2H3; h21C9
**Q.** Which results are given for B3?
**A.** Kd [1]: 0.74 nM; Kd [2]: 3.6 nM; Kd [3]: 2.4 nM; Kd [4]: 11.7 nM; Kd [5]: 9.47 nM; Kd [6]: 15.1 nM; Kd [7]: 9.3 nM; Kd [8]: 9.79 nM

B4: m28H12 (antibody, V domains shown)
VH: QVQLQQSGAELVKPGASVKLSCTASGFNIKDTYMHWVKQRPEQGLEWIGRIDPANGDTDYDPKFQGKATVTADTSSNTAYLQLSSLTSEDTAVYYCTISGPPYYVMDYWGQGTSVTVSS
VL: DIQMTQSPASLAVSLGQRATISCRASQSVSSSSYSYMHWYQQKPGQPPKLLIKYASNLESGVPARFSGRGSGTDFTLNIHPVEEEDTATYYCQHSWEIPYTFGGGTRLEIK
notes: murine monoclonal antibody; also called murine 28H12
**Q.** Does B4 bind [9]?
**A.** Result: binds

**Q.** Does B4 bind [10]?
**A.** Result: binds

B5: m20B1 (antibody, V domains shown)
VH: EVQLQQSGPELVKPGALVKISCKASGYTFTSYDINWLKQRPGQGLEWIGWIYPGDGTTEYNERFKGKATLTADKSSSTAYLQLSSLTSENSAVYFCARSYDYDYAMDYWGQGTSVTVSS
VL: DIVLTQSPAIMSASPGEKVTMTCSASSSISYMYWYQQKPGTSPKRWIYDTSKLASGVPARFSGSGSGTSYSLTISSMEAEDAATYYCHQRSSWTFGGGTKLEIK
notes: murine monoclonal antibody; also called murine 20B1
**Q.** Does B5 bind [9]?
**A.** Result: binds

**Q.** Does B5 bind [10]?
**A.** Result: binds

B6: 6E7.L4H1e (antibody, V domains shown)
VH: EVQLVQSGAEVKKPGASVKVSCKASGYSFTDYYMHWVRQAPGQGLEWIGRINPYNGAAFYSQNFKDRVTLTVDTSTSTAYLELSSLRSEDTAVYYCAIERGADLEGYAMDYWGQGTLVTVSS
VL: DIQMTQSPSSLSASVGDRVTITCRASQSVSTSSYNYMHWYQQKPGKPPKLLIKYASNLESGVPSRFSGSGSGTDFTLTISSLQPEDFATYYCQHSWEIPLTFGQGTKVEIK
notes: humanized, assessed in the form of an IgG; also called humanized 6E7.L4H1e; h6E7
**Q.** How did the Kd [1] turn out when B6 was run?
**A.** The Kd was 0.25 nM and 0.29 nM.

**Q.** What about the Kd [11] of the same binder?
**A.** Its Kd is 0.6 nM and 0.34 nM.

**Q.** And the Kd [2]?
**A.** The Kd was 0.68 nM and 0.35 nM.

**Q.** What about the Kd [4] of the same binder?
**A.** Its Kd is 0.622 nM.

**Q.** What about the koff [4] of the same binder?
**A.** Its koff is 0.000512 s⁻¹.

**Q.** And the kon [4]?
**A.** Its kon is 824000 M⁻¹ s⁻¹.

**Q.** What about the Kd [5] of the same binder?
**A.** The Kd was 0.317 nM.

**Q.** And the koff [5]?
**A.** Its koff is 0.000234 s⁻¹.

**Q.** What about the kon [5] of the same binder?
**A.** Its kon is 739000 M⁻¹ s⁻¹.

**Q.** And the Kd [6]?
**A.** Its Kd is 1.08 nM.

**Q.** What about the koff [6] of the same binder?
**A.** The koff was 0.000984 s⁻¹.

**Q.** What about the kon [6] of the same binder?
**A.** Its kon is 910000 M⁻¹ s⁻¹.

**Q.** And the Kd [7]?
**A.** The Kd was 2.26 nM.

**Q.** And the koff [7]?
**A.** The koff was 0.00181 s⁻¹.

**Q.** And the kon [7]?
**A.** Its kon is 804000 M⁻¹ s⁻¹.

**Q.** What about the Kd [12] of the same binder?
**A.** Its Kd is 1.1 nM.

**Q.** And the Kd [13]?
**A.** The Kd was 2.2 nM.

B7: 6E7.L4H1eA54 (antibody, V domains shown)
VH: B6 VH with N55A
VL: B6 VL
notes: humanized IgG; also called 6E7.L4H1eN54A; h6E7A
**Q.** How did the Kd [1] turn out when B7 was run?
**A.** The Kd was 0.32 nM.

**Q.** And the Kd [11]?
**A.** Its Kd is 0.64 nM.

**Q.** What about the Kd [2] of the same binder?
**A.** Its Kd is 0.89 nM.

**Q.** And the Kd [3]?
**A.** The Kd was 0.9 nM.

**Q.** And the Kd [6]?
**A.** The Kd was 3.08 nM.

**Q.** And the Kd [7]?
**A.** Its Kd is 3.14 nM.
